Data reported in patent publication US20070036794A1 (Genentech, published 2007).
Numbering of substitutions follows the chain as printed.

B1: anti-trkC agonist monoclonal antibody 2345 (antibody, human IgG2, V domains shown)
VH: QVQLQESGPGLVKPSQTLSLTCTVSGGSISSGGYYWSWIRQHPEKGLEWIGYIFYSGRTYYNPSLKSRVTISVDTSKNQFSLKLNSVTAADTAVYYCARERIAAAGADYYYNGLDVWGQGTTVTVSS
VL: EIVLTQSPGTLSLSPGERATLSCRASQSVSSNYLTWYQQKPGQAPRLLIYGASSRATGIPDRFSGSGSGTDFTLTISRLEPEDFAVYYCQQYGRSPPITFGQGTRLEIKR
notes: human IgG2 from Xenomouse hybridoma; heavy chain subgroup II, light chain kappa III
B2: anti-trkC agonist monoclonal antibody 2253 (antibody, mouse IgG1, V domains shown)
VH: QVQLQQSGAELMQPGASVKISCKSTGYTFSNFWIEWVKQRPGHGLEWIGEILPGSDNTNYNEKFKGKATFTADTSSNTAYMQLSSLTSEDSAVYYCARKNRNYYGNYVVWGAGTTLTVSS
VL: QIVLTQSPAIMSASPGEKVTITCSASSSVSYMYWFQQKPGTSPKLWIYSTSNLASGVPARFSGSGSGTSYSLTISRMEAEDAATYYCQQRSSYPLTFGAGTKLELKR
notes: murine IgG1; heavy chain subgroup IIA, light chain kappa IV
B3: anti-trkC agonist monoclonal antibody 2256 (antibody, mouse IgG1, V domains shown)
VH: QVQLQQPGAELVKPGASVKLSCKASGYTFTSYWMHWVKQRPGQGLEWIGEIYPSNGRTNYNEKFKSKATLTVDKSSSTAYMQLSSLTSEDSAVYYCARKYYYGNSYRSWYFDVWGAGTTLTVSS
VL: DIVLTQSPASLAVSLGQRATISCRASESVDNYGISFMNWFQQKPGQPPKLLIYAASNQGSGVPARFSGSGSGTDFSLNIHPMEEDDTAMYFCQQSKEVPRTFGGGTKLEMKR
notes: murine IgG1; heavy chain subgroup IIA, light chain kappa III
B4: neurotrophin-3 (NT-3) (ligand, UniProt P20783 139-257, looked up)
chain: YAEHKSHRGEYSVCDSESLWVTDKSSAIDIRGHQVTVLGEIKTGNSPVKQYFYETRCKEARPVKNGCRGIDDKHWNSQCKTSQTYVRALTSENNKLVGWRWIRIDTSCVCALSRKIGRT
B5: anti-trkC agonist monoclonal antibody 6.4.1 (antibody, human IgG2, V domains shown)
VH: QVQLQESGPGLVRPSETLSLTCTVSGGSISTYYWNWIRQPAGKGLEWIGRIYTSGSTNYNPSLKSRVTMSVDTSKNQFSLKLSSVTAADTAVYYCARDGGYSNPFDWGQGTLVTVSS
VL: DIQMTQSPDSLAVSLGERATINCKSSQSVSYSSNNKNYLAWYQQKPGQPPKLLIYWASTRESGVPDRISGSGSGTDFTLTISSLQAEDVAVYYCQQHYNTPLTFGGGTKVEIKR
notes: human IgG2 from Xenomouse hybridoma; heavy chain subgroup II, light chain kappa I; also called Mab 6.4.1
B6: anti-trkC agonist monoclonal antibody 2349 (antibody, human IgG4, V domains shown)
VH: B1 VH with G33Y, E44G, F54Y, R58S, V69L, N85S, A107T, D115A
VL: B1 VL with E1G, L21F, V29G, N32T, T35A
notes: human IgG4 from Xenomouse hybridoma; heavy chain subgroup II, light chain kappa III

target: T1, gD-tagged trkC (human trkC-gD) (human, UniProt Q16288 32-429); assay: competition ELISA on gD-trkC; competitor: unlabelled 2.5.1 (50 µg/ml); biotin-MAb 1 µg/ml; SA-HRP;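 note: negative control competitors were unlabelled human IgG2 and mouse IgG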
T1 construct: purified antigen of the ELISAs and SPR; also called gD-trkC
T1 sequence (Q16288 32-429 S70N): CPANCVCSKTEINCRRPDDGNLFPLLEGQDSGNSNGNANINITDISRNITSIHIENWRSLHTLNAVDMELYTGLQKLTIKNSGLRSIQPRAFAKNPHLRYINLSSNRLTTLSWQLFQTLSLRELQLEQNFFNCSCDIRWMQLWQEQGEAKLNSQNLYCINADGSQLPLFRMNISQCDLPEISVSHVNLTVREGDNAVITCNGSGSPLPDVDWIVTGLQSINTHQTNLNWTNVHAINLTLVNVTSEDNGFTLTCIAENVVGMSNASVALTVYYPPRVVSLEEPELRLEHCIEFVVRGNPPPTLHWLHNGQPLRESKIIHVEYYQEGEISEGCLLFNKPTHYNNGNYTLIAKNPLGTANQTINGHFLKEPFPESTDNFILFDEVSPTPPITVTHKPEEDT
Method: (§1) A competition ELISA was used to get preliminary information about various groups to which these antibodies belong depending on the epitope(s) on trkC they recognize. In this assay, trkC-gD (1 μg/ml) was used as a capture antigen to coat microliter plate. A specific biotinylated anti-trkC monoclonal antibody (1 μg/ml) was added to the coated plate either alone or in presence of another anti-trkC monoclonal antibody that was unlabeled and used in excess (50 μg/ml) as compared to the labeled antibody. If biotinylated antibody and unlabeled antibody both recognize the same or overlapping epitope, they will compete for binding to the immobilized trkC, resulting in decreased binding of the labeled antibody. If they recognize different and non-overlapping epitopes, there will be no competition between them, and the binding of the labeled antibody to the immobilized trkC will not be affected. Unlabeled human IgG2 and mouse IgG were used as negative control.

Binder	signal of the biotin-MAb in the competition ELISA
B1	0.17
B2	1.4

target: T2, trkC fused with a gD flag epitope, on stably transfected CHO cells (KIRA); assay: cell-based or functional assay

Binder	EC50 (read off the curve), trkC tyrosine phosphorylation, KIRA
B3	~4 nM
B4	5 to 9 nM

target: T1, gD-tagged trkC (human trkC-gD); assay: competition ELISA on gD-trkC; competitor: unlabelled 2256 (50 µg/ml); biotin-MAb 1 µg/ml; SA-HRP;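 note: negative control competitors were unlabelled human IgG2 and mouse IgG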
Method: as §1

Binder	signal of the biotin-MAb in the competition ELISA
B5	0.1
B3	0.02
B6	0.02
B2	1.34

target: T3, trkC mutant R285A (human, UniProt Q16288 32-429, limits assumed); assay: binding titration on trkC point mutants
T3 construct: point mutant in domain 5
T3 sequence (Q16288 32-429 S70N/R316A limits assumed): as the sequence (Q16288 32-429 S70N) above, with R285A counted along it

Binder	ratio EC50 mutant/EC50 wildtype trkC
B5	0.8 ratio
B1	1 ratio
B6	0.9 ratio
B2	0.9 ratio

target: T4, trkC mutant N335A (human, UniProt Q16288 32-429, limits assumed); assay: binding titration on trkC point mutants
T4 construct: point mutant in domain 5
T4 sequence (Q16288 32-429 S70N/N366A limits assumed): as the sequence (Q16288 32-429 S70N) above, with N335A counted along it

Binder	ratio EC50 mutant/EC50 wildtype trkC
B5	0.3 ratio
B3	0.5 ratio
B6	1.5 ratio
B2	0.5 ratio

target: T5, trkC mutant H318A (human, UniProt Q16288 32-429, limits assumed); assay: binding titration on trkC point mutants
T5 construct: point mutant in domain 5
T5 sequence (Q16288 32-429 S70N/H349A limits assumed): as the sequence (Q16288 32-429 S70N) above, with H318A counted along it

Binder	ratio EC50 mutant/EC50 wildtype trkC
B5	0.7 ratio
B3	0.8 ratio
B1	1 ratio
B6	0.7 ratio
B2	0.8 ratio

target: T6, trkC mutant E287K (human, UniProt Q16288 32-429, limits assumed); assay: binding titration on trkC point mutants
T6 construct: point mutant in domain 5
T6 sequence (Q16288 32-429 S70N/E318K limits assumed): as the sequence (Q16288 32-429 S70N) above, with E287K counted along it

Binder	ratio EC50 mutant/EC50 wildtype trkC
B3	0.7 ratio
B2	0.7 ratio

target: T7, trkC mutant L286H (human, UniProt Q16288 32-429, limits assumed); assay: binding titration on trkC point mutants
T7 construct: point mutant in domain 5
T7 sequence (Q16288 32-429 S70N/L317H limits assumed): as the sequence (Q16288 32-429 S70N) above, with L286H counted along it

Binder	ratio EC50 mutant/EC50 wildtype trkC
B3	0.6 ratio
B1	0.5 ratio
B6	0.6 ratio
B2	0.4 ratio

target: T8, trkC mutant L284E (human, UniProt Q16288 32-429, limits assumed); assay: binding titration on trkC point mutants
T8 construct: point mutant in domain 5
T8 sequence (Q16288 32-429 S70N/L315E limits assumed): as the sequence (Q16288 32-429 S70N) above, with L284E counted along it

Binder	ratio EC50 mutant/EC50 wildtype trkC
B3	1.1 ratio
B2	0.7 ratio

target: T1, gD-tagged trkC (human trkC-gD); assay: competition ELISA on gD-trkC; competitor: unlabelled 2345 (50 µg/ml); biotin-MAb 1 µg/ml; SA-HRP;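 note: negative control competitors were unlabelled human IgG2 and mouse IgG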
Method: as §1

Binder	signal of the biotin-MAb in the competition ELISA
B5	0.12
B1	0.04
B6	0.01
B2	1.4

target: T1, gD-tagged trkC (human trkC-gD); assay: competition ELISA on gD-trkC; competitor: unlabelled 6.1.2 (50 µg/ml); biotin-MAb 1 µg/ml; SA-HRP;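 note: negative control competitors were unlabelled human IgG2 and mouse IgG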
Method: as §1

Binder	signal of the biotin-MAb in the competition ELISA
B3	0.13
B1	0.11
B6	0.04

target: T1, gD-tagged trkC (human trkC-gD); assay: SPR (BIAcore), IgG over immobilized gD-trkC (400-600 RU)

Binder	Kd
B5	12 nM
B3	62 nM
B1	12 nM
B6	23 nM
B2	42 nM

target: T1, gD-tagged trkC (human trkC-gD); assay: competition ELISA on gD-trkC; competitor: unlabelled 2349 (50 µg/ml); biotin-MAb 1 µg/ml; SA-HRP;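 note: negative control competitors were unlabelled human IgG2 and mouse IgG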
Method: as §1

Binder	signal of the biotin-MAb in the competition ELISA
B5	0.1
B3	0.07
B1	0.02
B6	0

target: wildtype trkC (reference of Table 5) (human, UniProt Q16288 32-429, limits assumed); assay: binding titration on trkC point mutants; wildtype reference row
Sequence (Q16288 32-429 S70N limits assumed): as the sequence (Q16288 32-429 S70N) above

Binder	ratio EC50 mutant/EC50 wildtype trkC
B5	1 ratio
B3	1 ratio
B1	1 ratio
B6	1 ratio
B2	1 ratio

target: T1, gD-tagged trkC (human trkC-gD); assay: SPR (BIAcore), gD-trkC over immobilized IgG

Binder	Kd
B5	28 nM
B3	300 nM
B2	51 nM

target: T1, gD-tagged trkC (human trkC-gD); assay: SPR (BIAcore), summary table

Binder	Kd
B5	12 nM
B3	62 nM
B1	12.1 nM
B6	23 nM
B2	42 nM

target: T1, gD-tagged trkC (human trkC-gD); assay: competition ELISA on gD-trkC; competitor: unlabelled 6.4.1 (50 µg/ml); biotin-MAb 1 µg/ml; SA-HRP;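 note: negative control competitors were unlabelled human IgG2 and mouse IgG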
Method: as §1

Binder	signal of the biotin-MAb in the competition ELISA
B5	0.07
B3	0.12
B6	0.03

target: T1, gD-tagged trkC (human trkC-gD); assay: competition ELISA on gD-trkC; competitor: unlabelled 2250 (50 µg/ml); biotin-MAb 1 µg/ml; SA-HRP;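 note: negative control competitors were unlabelled human IgG2 and mouse IgG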
Method: as §1

Binder	signal of the biotin-MAb in the competition ELISA
B5	0.1
B3	0.01
B1	0.04
B6	0.02
B2	1.24

target: T3, trkC mutant R285A; assay: binding to trkC point mutants (NB = no binding observed)

Binder	binding result
B3	no binding

target: T4, trkC mutant N335A; assay: as above

Binder	binding result
B1	no binding

target: T6, trkC mutant E287K; assay: as above

Binder	binding result
B5	no binding
B1	no binding
B6	no binding

target: T7, trkC mutant L286H; assay: as above

Binder	binding result
B5	no binding

target: T8, trkC mutant L284E; assay: as above

Binder	binding result
B5	no binding
B1	no binding
B6	no binding

target: T1, gD-tagged trkC (human trkC-gD); assay: competition ELISA on gD-trkC; competitor: unlabelled 2253 (50 µg/ml); biotin-MAb 1 µg/ml; SA-HRP;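 note: negative control competitors were unlabelled human IgG2 and mouse IgG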
Method: as §1

Binder	signal of the biotin-MAb in the competition ELISA
B5	0.03
B3	0.02
B1	0.07
B6	0.03
B2	0

target: T2, trkC fused with a gD flag epitope, on …; assay: cell-based or functional assay; remark: another data set of the same source

Binder	EC50 (read off the curve), trkC tyrosine phosphorylation, KIRA
B5	~3 nM
B1	~2 nM
B6	~3 nM
B4	5 to 9 nM
